Residue numbers refer to the chain shown, from its start. Names and notes keep the numbering of the source.
Tested on: HP1a (homodimerization)
Test: Equilibrium analytical ultracentrifugation, HP1a self-association
Details: equilibrium AUC

B1: W200A: HP1a-CSD point mutant W200A (protein)
chain: EQDTIPVSGSTGFDRGLEAEKILGASDNNGRLTFLIQFKGVDQAEMVPSSVANEKIPRMVIHFYEERLSAYSDNED
modifications: left off: His6 (…), N-terminal, kept | two lysines for solubility, C-terminal, kept
- weakening of the dimerization (dissociation) constant relative to wild-type CSD: two-fold weakening

B2: S199ES202E: HP1a-CSD phosphorylation mimic, S199E and S202E double mutant (protein)
chain: B1 chain with S69E, A70W, S72E
modifications: left off: His6 (…), N-terminal, kept | two lysines for solubility, C-terminal, kept
- weakening of the dimerization (dissociation) constant relative to wild-type CSD: 6 fold

— paper PMC3154745 (Chembiochem : a European journal of chemical biology, 2011)
